We go through 4 molecules from patent publication US20220401557A1 (Chugai, published 2022).

In this experiment the target is CD3 on NFAT-RE-luc2-Jurkat cells (human, UniProt P07766 23-207). Briefly: cell-based or functional assay.
Chain of CD3 on NFAT-RE-luc2-Jurkat cells (P07766 23-207): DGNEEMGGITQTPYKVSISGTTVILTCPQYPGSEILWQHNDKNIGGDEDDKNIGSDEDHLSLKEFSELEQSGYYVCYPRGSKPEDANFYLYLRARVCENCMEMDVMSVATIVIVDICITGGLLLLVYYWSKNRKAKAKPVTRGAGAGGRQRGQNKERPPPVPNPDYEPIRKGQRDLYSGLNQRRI

B1: hCE115HA/GLSuPA20//GCH065 (bispecific antibody, human IgG1, kappa, N297A)
heavy 1: QVQLVESGGGVVQPGRSLRLSCAASGFTFSNAWMHWVRQAPGKGLEWVAQIKAKSNNYATYYAESVKGRFTISRDDSKNSLYLQMNSLKTEDTAVYYCRYVHYGAYYGVDAWGQGTTVTVSSASTKGPSVFPLAPSSKSTSGGTAALGCLVKDYFPEPVTVSWNSGALTSGVHTFPAVLQSSGLYSLSSVVTVPSSSLGTQTYICNVNHKPSNTKVDKKVEPKSCDKTHTCPPCPAPELRGGPKVFLFPPKPKDTLMISRTPEVTCVVVDVSHEDPEVKFNWYVDGVEVHNAKTKPREEQYASTYRVVSVLTVLHQDWLNGKEYKCKVSNKALPAPIEKTISKAKGQPREPQVYTLPPSRKEMTKNQVSLTCLVKGFYPSDIAVEWESNGQPENNYKTTPPYLDSDGSFFLYSKLTVDKSRWQQGNVFSCSVMHEALHNHYTQKSLSLSP
light 1: QDGNEEMGGITQTPYKVSISLSGRSDNHGGGSDIVMTQSPLSLPVTPGEPASISCRSSQSLVHSNRNTYLHWYQQKPGQAPRLLIYKVSNRFSGVPDRFSGSGSGTDFTLKISRVEAEDVGVYYCGQGTQVPYTFGQGTKLEIKRTVAAPSVFIFPPSDEQLKSGTASVVCLLNNFYPREAKVQWKVDNALQSGNSQESVTEQDSKDSTYSLSSTLTLSKADYEKHKVYACEVTHQGLSSPVTKSFNRGEC
heavy 2: QVQLVQSGAEVKKPGASVTVSCKASGYTFTDYEMHWIRQPPGEGLEWIGAIDGPTPDTAYSEKFKGRVTLTADKSTSTAYMELSSLTSEDTAVYYCTRFYSYTYWGQGTLVTVSSASTKGPSVFPLAPSSKSTSGGTAALGCLVKDYFPEPVTVSWNSGALTSGVHTFPAVLQSSGLYSLSSVVTVPSSSLGTQTYICNVNHKPSNTKVDKKVEPKSCDKTHTCPPCPAPELRGGPKVFLFPPKPKDTLMISRTPEVTCVVVDVSHEDPEVKFNWYVDGVEVHNAKTKPREEQYASTYRVVSVLTVLHQDWLNGKEYKCKVSNKALPAPIEKTISKAKGQPREPQVYTLPPSREEMTKNQVSLTCLVKGFYPSDIAVEWESNGQPENNYKTTPPYLDSDGSFFLYSKLTVDKSRWQQGNVFSCSVMHEALHNHYTQESLSLSP
light 2: DIVMTQSPLSLPVTPGEPASISCRSSQPLVHSNRNTYLHWYQQKPGQAPRLLIYKVSNRFSGVPDRFSGSGSGTDFTLKISRVEAEDVGVYYCGQGTQVPYTFGQGTKLEIKRTVAAPSVFIFPPSDEQLKSGTASVVCLLNNFYPREAKVQWKVDNALQSGNSQESVTEQDSKDSTYSLSSTLTLSKADYEKHKVYACEVTHQGLSSPVTKSFNRGEC
Take B1: the “increase rate due to the protease treatment (luciferase, uPA-treated / untreated), antibody 0.1 nM” value was determined as 1.6 ratio and the “increase rate due to the protease treatment (luciferase, uPA-treated / untreated), antibody 1 nM” value was found to be 3 ratio.

B2: hCE115HAGS/GLS//GCH065 (bispecific antibody, human IgG1, kappa, N297A)
heavy 1: QDGNEGGGSGGGSQVQLVESGGGVVQPGRSLRLSCAASGFTFSNAWMHWVRQAPGKGLEWVAQIKAKSNNYATYYAESVKGRFTISRDDSKNSLYLQMNSLKTEDTAVYYCRYVHYGAYYGVDAWGQGTTVTVSSASTKGPSVFPLAPSSKSTSGGTAALGCLVKDYFPEPVTVSWNSGALTSGVHTFPAVLQSSGLYSLSSVVTVPSSSLGTQTYICNVNHKPSNTKVDKKVEPKSCDKTHTCPPCPAPELRGGPKVFLFPPKPKDTLMISRTPEVTCVVVDVSHEDPEVKFNWYVDGVEVHNAKTKPREEQYASTYRVVSVLTVLHQDWLNGKEYKCKVSNKALPAPIEKTISKAKGQPREPQVYTLPPSRKEMTKNQVSLTCLVKGFYPSDIAVEWESNGQPENNYKTTPPYLDSDGSFFLYSKLTVDKSRWQQGNVFSCSVMHEALHNHYTQKSLSLSP
light 1: DIVMTQSPLSLPVTPGEPASISCRSSQSLVHSNRNTYLHWYQQKPGQAPRLLIYKVSNRFSGVPDRFSGSGSGTDFTLKISRVEAEDVGVYYCGQGTQVPYTFGQGTKLEIKRTVAAPSVFIFPPSDEQLKSGTASVVCLLNNFYPREAKVQWKVDNALQSGNSQESVTEQDSKDSTYSLSSTLTLSKADYEKHKVYACEVTHQGLSSPVTKSFNRGEC
heavy 2: QVQLVQSGAEVKKPGASVTVSCKASGYTFTDYEMHWIRQPPGEGLEWIGAIDGPTPDTAYSEKFKGRVTLTADKSTSTAYMELSSLTSEDTAVYYCTRFYSYTYWGQGTLVTVSSASTKGPSVFPLAPSSKSTSGGTAALGCLVKDYFPEPVTVSWNSGALTSGVHTFPAVLQSSGLYSLSSVVTVPSSSLGTQTYICNVNHKPSNTKVDKKVEPKSCDKTHTCPPCPAPELRGGPKVFLFPPKPKDTLMISRTPEVTCVVVDVSHEDPEVKFNWYVDGVEVHNAKTKPREEQYASTYRVVSVLTVLHQDWLNGKEYKCKVSNKALPAPIEKTISKAKGQPREPQVYTLPPSREEMTKNQVSLTCLVKGFYPSDIAVEWESNGQPENNYKTTPPYLDSDGSFFLYSKLTVDKSRWQQGNVFSCSVMHEALHNHYTQESLSLSP
light 2: DIVMTQSPLSLPVTPGEPASISCRSSQPLVHSNRNTYLHWYQQKPGQAPRLLIYKVSNRFSGVPDRFSGSGSGTDFTLKISRVEAEDVGVYYCGQGTQVPYTFGQGTKLEIKRTVAAPSVFIFPPSDEQLKSGTASVVCLLNNFYPREAKVQWKVDNALQSGNSQESVTEQDSKDSTYSLSSTLTLSKADYEKHKVYACEVTHQGLSSPVTKSFNRGEC
As for B2, the “increase rate due to the protease treatment (luciferase, uPA-treated / untreated), antibody 0.1 nM” value is 1 ratio and the “increase rate due to the protease treatment (luciferase, uPA-treated / untreated), antibody 1 nM” value was 1 ratio.

B3: rCE115/GLS//GCH065 (bispecific antibody, human IgG1, kappa, N297A)
heavy 1: EVQLVETGGSLVQPGKSLKLTCATSGFTFSNAWMHWVRQSPEKQLEWVAQIKAKSNNYATYYAESVKGRFTISRDDSKSNIYLQMNSLKEEDTAVYYCRYVHYGAYYGVDAWGQGTSVTVSSASTKGPSVFPLAPSSKSTSGGTAALGCLVKDYFPEPVTVSWNSGALTSGVHTFPAVLQSSGLYSLSSVVTVPSSSLGTQTYICNVNHKPSNTKVDKKVEPKSCDKTHTCPPCPAPELRGGPKVFLFPPKPKDTLMISRTPEVTCVVVDVSHEDPEVKFNWYVDGVEVHNAKTKPREEQYASTYRVVSVLTVLHQDWLNGKEYKCKVSNKALPAPIEKTISKAKGQPREPQVYTLPPSRKEMTKNQVSLTCLVKGFYPSDIAVEWESNGQPENNYKTTPPYLDSDGSFFLYSKLTVDKSRWQQGNVFSCSVMHEALHNHYTQKSLSLSP
light 1: DIVMTQSPLSLPVTPGEPASISCRSSQSLVHSNRNTYLHWYQQKPGQAPRLLIYKVSNRFSGVPDRFSGSGSGTDFTLKISRVEAEDVGVYYCGQGTQVPYTFGQGTKLEIKRTVAAPSVFIFPPSDEQLKSGTASVVCLLNNFYPREAKVQWKVDNALQSGNSQESVTEQDSKDSTYSLSSTLTLSKADYEKHKVYACEVTHQGLSSPVTKSFNRGEC
heavy 2: QVQLVQSGAEVKKPGASVTVSCKASGYTFTDYEMHWIRQPPGEGLEWIGAIDGPTPDTAYSEKFKGRVTLTADKSTSTAYMELSSLTSEDTAVYYCTRFYSYTYWGQGTLVTVSSASTKGPSVFPLAPSSKSTSGGTAALGCLVKDYFPEPVTVSWNSGALTSGVHTFPAVLQSSGLYSLSSVVTVPSSSLGTQTYICNVNHKPSNTKVDKKVEPKSCDKTHTCPPCPAPELRGGPKVFLFPPKPKDTLMISRTPEVTCVVVDVSHEDPEVKFNWYVDGVEVHNAKTKPREEQYASTYRVVSVLTVLHQDWLNGKEYKCKVSNKALPAPIEKTISKAKGQPREPQVYTLPPSREEMTKNQVSLTCLVKGFYPSDIAVEWESNGQPENNYKTTPPYLDSDGSFFLYSKLTVDKSRWQQGNVFSCSVMHEALHNHYTQESLSLSP
light 2: DIVMTQSPLSLPVTPGEPASISCRSSQPLVHSNRNTYLHWYQQKPGQAPRLLIYKVSNRFSGVPDRFSGSGSGTDFTLKISRVEAEDVGVYYCGQGTQVPYTFGQGTKLEIKRTVAAPSVFIFPPSDEQLKSGTASVVCLLNNFYPREAKVQWKVDNALQSGNSQESVTEQDSKDSTYSLSSTLTLSKADYEKHKVYACEVTHQGLSSPVTKSFNRGEC
Consider B3, for which the “increase rate due to the protease treatment (luciferase, uPA-treated / untreated), antibody 0.1 nM” value is 0.7 ratio and the “increase rate due to the protease treatment (luciferase, uPA-treated / untreated), antibody 1 nM” value is 0.9 ratio.

B4: hCE115HA/GLSuPA27//GCH065 (bispecific antibody, human IgG1, kappa, N297A)
heavy 1: QVQLVESGGGVVQPGRSLRLSCAASGFTFSNAWMHWVRQAPGKGLEWVAQIKAKSNNYATYYAESVKGRFTISRDDSKNSLYLQMNSLKTEDTAVYYCRYVHYGAYYGVDAWGQGTTVTVSSASTKGPSVFPLAPSSKSTSGGTAALGCLVKDYFPEPVTVSWNSGALTSGVHTFPAVLQSSGLYSLSSVVTVPSSSLGTQTYICNVNHKPSNTKVDKKVEPKSCDKTHTCPPCPAPELRGGPKVFLFPPKPKDTLMISRTPEVTCVVVDVSHEDPEVKFNWYVDGVEVHNAKTKPREEQYASTYRVVSVLTVLHQDWLNGKEYKCKVSNKALPAPIEKTISKAKGQPREPQVYTLPPSRKEMTKNQVSLTCLVKGFYPSDIAVEWESNGQPENNYKTTPPYLDSDGSFFLYSKLTVDKSRWQQGNVFSCSVMHEALHNHYTQKSLSLSP
light 1: QDGNEEMGGITQTPYKVSISGTTVILTLSGRSDNHDIVMTQSPLSLPVTPGEPASISCRSSQSLVHSNRNTYLHWYQQKPGQAPRLLIYKVSNRFSGVPDRFSGSGSGTDFTLKISRVEAEDVGVYYCGQGTQVPYTFGQGTKLEIKRTVAAPSVFIFPPSDEQLKSGTASVVCLLNNFYPREAKVQWKVDNALQSGNSQESVTEQDSKDSTYSLSSTLTLSKADYEKHKVYACEVTHQGLSSPVTKSFNRGEC
heavy 2: QVQLVQSGAEVKKPGASVTVSCKASGYTFTDYEMHWIRQPPGEGLEWIGAIDGPTPDTAYSEKFKGRVTLTADKSTSTAYMELSSLTSEDTAVYYCTRFYSYTYWGQGTLVTVSSASTKGPSVFPLAPSSKSTSGGTAALGCLVKDYFPEPVTVSWNSGALTSGVHTFPAVLQSSGLYSLSSVVTVPSSSLGTQTYICNVNHKPSNTKVDKKVEPKSCDKTHTCPPCPAPELRGGPKVFLFPPKPKDTLMISRTPEVTCVVVDVSHEDPEVKFNWYVDGVEVHNAKTKPREEQYASTYRVVSVLTVLHQDWLNGKEYKCKVSNKALPAPIEKTISKAKGQPREPQVYTLPPSREEMTKNQVSLTCLVKGFYPSDIAVEWESNGQPENNYKTTPPYLDSDGSFFLYSKLTVDKSRWQQGNVFSCSVMHEALHNHYTQESLSLSP
light 2: DIVMTQSPLSLPVTPGEPASISCRSSQPLVHSNRNTYLHWYQQKPGQAPRLLIYKVSNRFSGVPDRFSGSGSGTDFTLKISRVEAEDVGVYYCGQGTQVPYTFGQGTKLEIKRTVAAPSVFIFPPSDEQLKSGTASVVCLLNNFYPREAKVQWKVDNALQSGNSQESVTEQDSKDSTYSLSSTLTLSKADYEKHKVYACEVTHQGLSSPVTKSFNRGEC
For the molecule B4, the “increase rate due to the protease treatment (luciferase, uPA-treated / untreated), antibody 0.1 nM” value was 1 ratio and the “increase rate due to the protease treatment (luciferase, uPA-treated / untreated), antibody 1 nM” value was 2.3 ratio.
